The source of these data is publication PMC5811392 (Biochemistry, 2018).

Experiment [1] addresses T1, Human p53 DNA-binding domain (residues 88-312) (human, UniProt P04637 88-312). The experiment can be described thus: ITC. A general note: Isothermal titration calorimetry measures the heat released or taken up as one component is titrated into another.
Experiment [2] deals with T1, Human p53 DNA-binding domain (residues …). The experiment can be described thus: fluorescence polarisation.
For experiment [3] the target is unchanged. Kind of experiment: NMR titration.

T1 sequence (P04637 88-312): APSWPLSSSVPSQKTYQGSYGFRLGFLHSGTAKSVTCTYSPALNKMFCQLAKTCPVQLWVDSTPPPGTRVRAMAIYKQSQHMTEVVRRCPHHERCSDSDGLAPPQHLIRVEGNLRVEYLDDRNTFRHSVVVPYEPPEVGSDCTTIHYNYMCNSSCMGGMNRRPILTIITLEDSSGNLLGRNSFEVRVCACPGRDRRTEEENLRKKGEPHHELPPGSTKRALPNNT

B1: full length p23 (residues 1-160) (natural protein, human, UniProt Q15185 1-160, looked up)
chain: MQPASAKWYDRRDYVFIEFCVEDSKDVNVNFEKSKLTFSCLGGSDNFKHLNEIDLFHCIDPNDSKHKRTDRSILCCLRKGESGQSWPRLTKERAKLNWLSVDFNNWKDWEDDSDEDMSNFDRFSEMMNNMGGDEDVDLPEVDGADDDSQDSDDEKMPDLE
B1: the figures for the Kd in experiment [1], in experiment [2] and in experiment [3] were 7 ± 2 µM, 21 ± 7 µM and 8 ± 2 µM, respectively. The molecule also gave a dH in experiment [1] of -1.9 ± 100 kcal/mol.

B2: GB1-p23 (120-160) (domain or fragment, human, UniProt Q15185 120-160, looked up)
chain: FDRFSEMMNNMGGDEDVDLPEVDGADDDSQDSDDEKMPDLE
For the molecule B2, the Kd – broadly, the equilibrium constant for the complex coming apart – in experiment [1] came out at 24 ± 15 µM.

B3: GB1-p23 (110-160) (domain or fragment, human, UniProt Q15185 110-160, looked up)
chain: EDDSDEDMSNFDRFSEMMNNMGGDEDVDLPEVDGADDDSQDSDDEKMPDLE
With B3, the Kd in experiment [3] was 6 ± 4 µM.
